For data set [1], the system named is T1, L-phosphopentapeptide 5, NBD-βA-LLLLpY.
T1 sequence: XLLLLX

The subject of data set [2] is T2, phosphopeptide 3, NBD-βA-LLLpY.
T2 sequence: XLLLX

The test system of data set [3] is T3, phosphopentapeptide 7, NBD-βA-LLpYLL.
T3 sequence: XLLXLL

For data set [4], the system named is T4, phosphopentapeptide 9, NBD-βA-llllpY.
T4 sequence: LLLLY

Consider “Alkaline phosphatase (Biomatik, Cat. No. A1130)”, for which, in data set [1], the “conversion of 5 to 6 after 1 hour, 0.1 U/mL ALP” value is “After 1 hour of incubation, 32.7% of 5 turns into 6”; the “conversion of 5 to 6 after 2 hours, 0.1 U/mL ALP” value is given as “After 2 hours of incubation of 5 with 0.1 U/mL of ALP, 49.6% of 5 becomes 6”; the “dephosphorylation ratio after 5 hours, 400 µM of 5, 0.5 U/mL ALP” value is recorded as “After 5 hours of incubation, 400 µM of 5 results in a dephosphorylation ratio of 93.8%”; the “final dephosphorylation ratio, 5 (400 µM), 0.1 U/mL ALP” value was “the final dephosphorylation ratio is 69.1%”. Further, the “fraction of 5 hydrolyzed at 40 minutes, 0.1 U/mL ALP” value in data set [1] is “At the time point 40 minutes, about 24% of 5 is hydrolyzed by ALP”. Also, the “dephosphorylation catalyzed by ALP” value in data set [2] is 3 is able to turn into 4 upon dephosphorylation catalyzed by ALP. The “conversion ratio of 7 to 8 after 5 h, 0.5 U/mL ALP” value in data set [3] was “After 5 h of incubation, the conversion ratio of 7 to 8 is 61.5%”. In addition, the “conversion ratio of 9 to 10 after 5 hours, 0.5 U/mL ALP” value in data set [4] was “After 5 hours of incubation, the conversion ratio of 9 to 10 is 93.3%”.

(Values after US20240294570.)
